Experimental findings from the DeepSol protein solubility set are described below.

This series in a line: soluble on expression in E. coli; label from the status in PepcDB or PDB records.
In the case of “MSGSVSGCGSGGCSIVWFRRDLRVEDNPALAAAVRAGPVIALFVWAPEEEGHYHPGRVSRWWLKNSLAQLDSSLRSLGTCLITKRSTDSVASLLDVVKSTGASQIFFNHLYDPLSLVRDHRAKDVLTAQGIAVRSFNADLLYEPWEVTDELGRPFSMFAAFWERCLSMPYDPESPLLPPKKIISGDVSKCVADPLVFEDDSEKGSNALLARAWSPGWSNGDKALTTFINGPLLEYSKNRRKADSATTSFLSPHLHFGEVSVRKVFHLVRIKQVAWANEGNEAGEESVNLFLKSIGLREYSRYISFNHPYSHERPLLGHLKFFPWAVDENYFKAWRQGRTGYPLVDAGMRELWATGWLHDRIRVVVSSFFVKVLQLPWRWGMKYFWDTLLDADLESDALGWQYITGTLPDSREFDRIDNPQFEGYKFDPNGEYVRRWLPELSRLPTDWIHHPWNAPESVLQAAGIELGSNYPLPIVGLDEAKARLHEALSQMWQLEAASRAAIENGSEEG”, the “soluble on expression in E. coli” value is reported as “soluble”.

As for “MSHGDQLEQYQDQYFDCIKKYDMPAALEVLELIAESCIELNDDDPLIEACERGASYLKCCLKYENLVNLHASQKINDHTLFFLNLEVRRRSTYQCFATTRSFLTPHRKRQLAKTMNAEPRIFAFGLNANNNLGVDTVQSALVDVPTEIYVPPVYEMKMSNFHSVFWCHDGKFFGCGETKNFMISKPDSELPRIVKFPMELDIQIWRNEMIVGIKALENGTLFQTDRRLYFVGDYQKSKAYLKTFHDEEFDMVTQLPYATPNFWITQSRPVSSISAYKLDDKKNVTILRVKSVSYWIQVYPDYWTELNPGYIKKRPVVYLLDDVEVKNIRIETVGCNIIYVVHELTLYFGKMTMTMVENSDGDENNLDNYILFVELHEYRTRSPYLCTGVATNKAQGVLMKCGDFPCVGFDYLEIAENRFRGNVQKYMFETVEKFMESYDVFENDEVSMDYLLSETEKAFNSGVMEQEIKLDWLGRTEKKYRYSNFYSFLGYVSQPRLLTGPPKCFTTDIDTLLTYKDPKLVARHRMKQLFEEFERVNYPGTDVWKPTGFLKSHDIPEEDNLSEGRYRSAAMKWCVNEFMEQFNVYRENPVFNPDNLVYKEILKYLINVIWYALDQWIIITEKTENDRVAPLLREIEHKVPDDEILFQTVYPEKILENRLREGSLKMEDLPEPLNIRVTFLLRHRDPKLKPTRFNLNTCRTFFNFLYPALEDFIDENNVLDLNKLYPDDVAIHRLIAQTYFVGHGLTDLEGSEKYDRSVYDSKGVRLEPMVRFMRKGREHFRGFLRRVPSTSAPGDGPIVFPTADHQAFFKMQRVLYSRLPLTEKLPIDIEDDLYSAAIVGLQDKRVLEVLTMDEKLRILEWYEKAKMPEALMDLLKQCIIESTSKNYYHIRYLFSQYPIMTQRFIAQYRPGIILWHRSPIPNPQIHHVRIITEMWPKNDFERTTRIPRKKFIKNGIVEDSKFYMIGSYLRRDAYKDIHYPAQKTTKLTELFNIDFPVNGPKKSKNQMMLITFPSREIVEEEEPPQEAEQSPSPDPEKIAKRREELRKKIAEKLAASKKKKKR”, the “soluble on expression in E. coli” value is “not soluble”. For the sequence “MSHIQRETSCSRPRLNSNLDADLYGYRWARDNVGQSGATIYRLYGKPNAPELFLKHGKGSVANDVTDEMVRLNWLTAFMPLPTIKHFIRTPDDAWLLTTAIPGKTAFQVLEEYPDSGENIVDALAVFLRRLHSIPVCNCPFNSDRVFRLAQAQSRMNNGLVDASDFDDERNGWPVEQVWKEMHKLLPFSPDSVVTHGDFSLDNLIFDEGKLIGCIDVGRVGIADRYQDLAILWNCLGEFSPSLQKRLFQKYGIDNPDMNKLQFHLMLDEFF”, the “soluble on expression in E. coli” value is “soluble”. For “MSHLALKDLFSGFFVIDDEEEVEVPDKQQQVNEAPAKEQSQQTTKQNAIKSVPQKSASRYTTTSEERNNRMSNYSKNNSRNVVTMNNATPNNASQESSKMCLFEPRVFSDTQDIADELKNRRATLVNLQRIDKVSAKRIIDFLSGTVYAIGGDIQRVGTDIFLCTPDNVEVAGSITDHIENMEHSFDLEHHHHHH” the value was “not soluble”; for “MSHSEAGQAASVRRVLAVIPARGGSKGVPAKNLLPVGGVPLVARAVRECRATRLVTDVVVSTDDHAIAAAAREAGAEVVLRPAAIAGDTATSEAAVLHAMDTHEALHGAAVDVVLLVQCTSPFIVREDVDGVVHAIVGKGADTALTVAPFHGFVWRDADDAPGALGAERAAVEGGTDTLVTGTATSGGYGINHDKSFRPRRQDRPQDLLETGAVYGMDATGFREARHRFFGRTELVRTDPARVLEIDDPHDLARARALAPLFDANRPGALPTAEDIDAVVLDFDGTQTDDRVLIDSDGREFVSVHRGDGLGIAALRKSGLTMLILSTEQNPVVAARARKLKIPVLHGIDRKDLALKQWCEEQGIAPERVLYVGNDVNDLPCFALVGWPVAVASAHDVVRGAARAVTTVPGGDGAIREIASWILGPSLDSLDKLEHHHHHH”, “not soluble”. For “MSHSQRGLNWFNALSADASEVTGLPASLKVADGLLGEQPVRFVAVIADTNNRFPRARQGEVGLLEGWGLAKAVDDAIEQDRERAEKRALIAIVDVPSQAYGRREEALGIHQALAGAVDSYARARLAGHPVIGLLVGKAMSGAFLAHGYQANRLIALRDPGVMVHAMGKASAARVTQRSVDDLEKLAASIAPMAYDIDSYASLGLLWETLSVSQIEQPAVDDLTQVRQVLSSAIKDVQASGVDLSSRLGASNRKASAHVRQLLRAQW” the value was “not soluble”. Take “MSIASVASVFKGEHAVGSTVTVRGWVRTRRDSKAGISFLAVYDGSCFNPIQGVVPNSLENYDNEVLKLTAGCSVIVTGDIVESPGAGQAYELQVTAVEVTGWVEDPDTYPMAAKRHSIEHLRELAHLRPRTNIIGAVARVRNCLSQAIHRFYHENGFVWVSTPLITASDCEGAGEMFRVSTLDMENLPRTSDGKVDYDKDFFGKEAFLTVSGQLNGETYACALSKIYTFGPTFRAENSNTSRHLAEFWMVEPEVAFATLNDIAGLAEGMLKYAFNAVLTERMDDLQFFAQHVDKTVIERLQSFVSSDFAQVDYTDAVEILQKSGREFEFPVSWGIDLSSEHERYLAEEHFKAPVVVKNYPKDIKAFYMRLNEDGKTVAAMDVLAPGIGEIIGGSQREERLDVLDMRLEEMDLNKEDYWWYRDLRRYGTVPHAGFGLGFERLVSYVTGVSNIRDVIPFPRAPRTANFLEHHHHHH”: the “soluble on expression in E. coli” value is given as “soluble”. For “MSIHVNEANLTFHLQTDHTSYIFQIMKNGEAGQIYYGPRIHVQPTYQNLMSQEWRDATPSLNEENPNFQPATIKAEYASLGKGDFRQPAFQVTQANGSRITELTYDHYQLLTGKQRLANLPSTFDDTDDDAQTLVVSFNDRITGLALDLNYSIFPHQDVIVKSAKFTNPSSEKLVLNRALSSQLDLPDANYDLIQFSGTWARERHLYRHPLRPGMQSISSLRMASSHQQNPFMMLARPQTTDEQGAVFGFNLVYSGNFLDAIEVDQYSTSRILTGINPDEFGWNLAPQATFQTPEAILSYTSAGMNQLSQQMASFYQQHLVNPRFAHEERPVLINNWEATYFDFNEAKLMTIVNQAKRLGIEMFVLDDGWFGHRDDDTTSLGDWFVDQRKFPDGIEHFSQAVHQQGMKFGLWFEPEMVSVDSDLYQQHPDWLIHAPKSTPTPGRHQFVLDMARPEVVDYLFKLMSQMIESANLDYIKWDMNRYATEMFSSRLTSDQQLELPHRYILGVYQLYARLTQAYPNVLFESCASGGGRFDLGMMYYAPQAWTSDDTDAAERLLIQFGTSYGYPQAMMGAHVSAVPNDQMGRITSLKTRGAVAFFGDLGYELDITKMAPTELDQVKKQVAFYKCYRQLFQFGKFYRIDSPFVEDGNVTSWQVVSDDQKQAIAARYQLLNHPNAPYTRFYFKGLRPNQRYQINDDPSTYYGDELMNAGYFVPTILADGQESKDFYTQLFVVTAILEHHHHHH” the value was “soluble”; for “MSIKEQTLMTPYLQFDRNQWAALRDSVPMTLSEDEIARLKGINEDLSLEEVAEIYLPLSRLLNFYISSNLRRQAVLEQFLGTNGQRIPYIISIAGSVAVGKSTTARVLQALLSRWPEHRRVELITTDGFLHPNQVLKERGLMKKKGFPESYDMHRLVKFVSDLKSGVPNVTAPVYSHLIYDVIPDGDKTVVQPDILILEGLNVLQSGMDYPHDPHHVFVSDFVDFSIYVDAPEDLLQTWYINRFLKFREGAFTDPDSYFHNYAKLTKEEAIKTAMTLWKEINWLNLKQNILPTRERASLILTKSANHAVEEVRLRK”, “soluble”.

For “MSILEQVQPIETMLPERYYTMSTEDMEKRVREIKEKMGKMLFIPGHHYQKDEVVQFSDAVGDSLQLAQVAASNKDAKYIVFCGVHFMAETADMLTTDDQVVILPDMRAGCSMADMADIEQTERAWKELTKLFGDTMIPLTYVNSTAAIKAFCGRNGGATVTSSNAKQMVSWAFTQKERLVFLPDQHLGRNTAYDLGIPLDKMAVWDPHTDSLEYDGDIEEIQVILWKGHCSVHQNFTVKNIESVRKNHSDMNIIVHPECCYEVVAASDYAGSTKYIIDMIESAPPGSKWAIGTEMNLVNRIIQQHPDKEIVSLNPFMCPCLTMNRIDLPHLLWALETIERGEEINVISVDKQVTAEAVLALNRMLERV”, the “soluble on expression in E. coli” value is reported as “not soluble”. For “MSILLVKNAQIVNDDAIFVADILIEDGIIQNVAPNLEAPEGAEVLDAAGKLALPAGIDVYTQVTDSSVDDLSTGCKSAIAGGTGTIVEVVRPRGAESVVSAVKRVKNQLEKSGISCHVALSVAITDFCEQEMSELVKNEGINSFVLDGVSLTDDKLLELFEHVKRLGALIRVVPENKSIVAMLEKKMLKLGVTGPEGFPQSRPESLEADRVSGVCVLGNLASCPISIVQVSSADSLAAIEKARASGALAHAEIASAAVTADGSALFSQDLRFASAHLTDVPLRRGAPDRMIGALSTQPLVVCTSGHRPVNSATRVAAKDFAIAQKGSTGAEERMAVVWERAVRSGRIDAMRFVAVTSTNAAKMFNMYPKKGRIAVGADADLVIWDASGKRVLESSRAQSSQENSMYDGLTVHSVVTATIVGGKIAYQNGEVREAPVAGGFLRLSPNSPYLFSMVGQRDKFANVERVEREASSQQQKPQQNGHHKNSGDFDRNRTKVMESSIDFGGSAANRPRNPPGGRTTGFW” the value was “not soluble”.

With “MSIMGKVAKLDSAMQRGLDNSFAFVFGGKLVPAEIEELLKQEVQDNIVRAYEGGVESPNVFRVRVSRKDAQNLAQRYPSLADDFADRLSRYTRNQGWSTEGPVVVTIAADSGLRTGQLHASSAFDPVPQEYSHFIGVEDDVAAAAPTNDESNYESESGMNSYDADPRTEYMTAQAPDAIYTEVPVPEPKATPTVSLLLQDGSSRTYLVEEGSNIIGRSNEAHFRLPDTGVSRQHAEITWNGRDAILTDLKSTNGTTVNDTPVENWLLEDGDVITVGHSHIEVRIVEPN”, the “soluble on expression in E. coli” value was “not soluble”.

Take “MSIMLPINNNFSLSQNSFYNTISGTYADYFSAWDKWEKQALPGENRNEAVSLLKECLINQFSELQLNRLNLSSLPDNLPPQITVLEITQNALISLPELPASLEYLDACDNRLSTLPELPASLKHLDVDNNQLTMLPELPALLEYINADNNQLTMLPELPTSLEVLSVRNNQLTFLPELPESLEALDVSTNLLESLPAVPVRNHHSEETEIFFRCRENRITHIPENILSLDPTCTIILEDNPLSSRIRESLSQQTAQPDYHGPRIYFSMSDGQQNTLHRPLADAVTAWFPENKQSDVSQIWHAFEHEEHANTFSAFLDRLSDTVSARNTSGFREQVAAWLEKLSASAELRQQSFAVAADATESCEDRVALTWNNLRKTLLVHQASEGLFDNDTGALLSLGREMFRLEILEDIARDKVRTLHFVDEIEVYLAFQTMLAEKLQLSTAVKEMRFYGVSGVTANDLRTAEAMVRSREENEFTDWFSLWGPWHAVLKRTEADRWALAEEQKYEMLENEYPQRVADRLKASGLSGDADAEREAGAQVMRETEQQIYRQLTDEVLALRLPENGSQLHHS”: the “soluble on expression in E. coli” value was “soluble”. As for “MSINVDEFQCYRIPNVYVQWYDLEPTIHWLTGGNSNSRQIQEMDQKKKKIRSTSAYALFFRERQSLEKRAAPYATFGQISQKIARQWDSLTEEEKKAYKQRCEKNRKTSIANAVEEKARQLLTASKFQ”, the “soluble on expression in E. coli” value is “not soluble”.
